For four substances, Kd results are on record in article PMC9132996.

A word on the Kd: it is a measure of binding affinity in units of concentration. Higher therefore signals lower affinity.

The test system of the data set is PutA (proline utilization A) (Ralstonia solanacearum GMI1000). Nature of the data set: MST. To be noted: room temperature 30 min, buffer not stated.
In turn, epsA promoter 336 bp registered a Kd of 10.7 nM.

On to phcB promoter 327 bp, for which the equilibrium dissociation constant (Kd) amounted to 13 nM. This Kd and that of the substance before are within 1.5-fold of each other.

solI promoter 324 bp came in with a Kd of 12.7 nM.

Substance trpEG promoter 291 bp came in with a Kd of 17.1 nM.
